The data set concerns the molecule itself. Briefly: cryo-EM structure; YES complex of EcMraY(T23P), protein E and SlyD, obtained with the methodologies of ref. 31; focused refinement of MraY alone; processed with cryosparc v3.2.0.

B1: E. coli MraY(T23P) (enzyme)
chain: MLVWLAEHLVKYYSGFNVFSYLPFRAIVSLLTALFISLWMGPRMIAHLQKLSFGQVVRNDGPESHFSKRGTPTMGGIMILTAIVISVLLWAYPSNPYVWCVLVVLVGYGVIGFVDDYRKVVRKDTKGLIARWKYFWMSVIALGVAFALYLAGKDTPATQLVVPFFKDVMPQLGLFYILLAYFVIVGTGNAVNLTDGLDGLAIMPTVFVAGGFALVAWATGNMNFASYLHIPYLRHAGELVIVCTAIVGAGLGFLWFNTYPAQVFMGDVGSLALGGALGIIAVLLRQEFLLVIMGGVFVVETLSVILQVGSFKLRGQRIFRMAPIHHHYELKGWPEPRVIVRFWIISLMLVLIGLATLKVR
notes: MraY (phospho-MurNAc-pentapeptide transferase) of Escherichia coli with the T23P substitution, as it stood in the YES complex for cryo-EM; also called EcMraY(T23P)
In general, stoichiometry N refers to the number of molecules, sites or subunits per partner or assembly. Regarding B1, the “stoichiometry N” value was determined as 2.

For the origin of these results see doi:10.1101/2023.08.01.551478, “A feedback control mechanism governs the synthesis of lipid-linked precursors of the bacterial cell wall” (bioRxiv, 2023).
